Source: patent US20240228656A1 (HARPOON THERAPEUTICS, published 2024)

Key:
[1] = molecular target: T1, EpCAM H13 Mask27 L040 (EpCAM targeting ProTriTAC with H13); assay: binding assay, affinity summary
T1 construct: trispecific prodrug: masked anti-albumin sdAb-cleavable linker L040-anti-CD3 scFv-anti-EpCAM sdAb H13-His6; also called H13 ProTriTAC (L040)

[2] = molecular target: T2, EpCAM H90 Mask27 L040 (EpCAM targeting ProTriTAC with H90); assay: binding assay with kinetics, affinity summary (instrument not stated)
T2 construct: trispecific prodrug: masked anti-albumin sdAb-L040-anti-CD3 scFv-anti-EpCAM sdAb H90-His6

[3] = molecular target: T3, EpCAM H90.2 Mask27 L040 (EpCAM targeting ProTriTAC with H90.2); assay: as above
T3 construct: trispecific prodrug; also called H90.2 ProTriTAC (L040)
T3 sequence (chain, as listed by the source): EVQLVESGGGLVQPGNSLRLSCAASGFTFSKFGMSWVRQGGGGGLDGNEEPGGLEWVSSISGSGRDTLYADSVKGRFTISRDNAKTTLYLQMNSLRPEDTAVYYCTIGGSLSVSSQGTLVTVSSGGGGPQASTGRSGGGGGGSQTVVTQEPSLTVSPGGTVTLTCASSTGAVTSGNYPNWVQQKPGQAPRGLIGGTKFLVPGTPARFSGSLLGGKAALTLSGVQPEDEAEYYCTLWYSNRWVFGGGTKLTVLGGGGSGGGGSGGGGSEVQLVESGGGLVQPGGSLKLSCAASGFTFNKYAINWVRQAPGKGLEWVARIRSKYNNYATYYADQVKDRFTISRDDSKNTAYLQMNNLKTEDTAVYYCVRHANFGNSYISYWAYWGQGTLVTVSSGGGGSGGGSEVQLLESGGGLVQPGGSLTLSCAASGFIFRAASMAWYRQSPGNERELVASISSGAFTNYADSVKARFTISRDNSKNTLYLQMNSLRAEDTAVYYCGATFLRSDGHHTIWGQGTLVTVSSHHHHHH

T1 sequence (chain, as listed by the source): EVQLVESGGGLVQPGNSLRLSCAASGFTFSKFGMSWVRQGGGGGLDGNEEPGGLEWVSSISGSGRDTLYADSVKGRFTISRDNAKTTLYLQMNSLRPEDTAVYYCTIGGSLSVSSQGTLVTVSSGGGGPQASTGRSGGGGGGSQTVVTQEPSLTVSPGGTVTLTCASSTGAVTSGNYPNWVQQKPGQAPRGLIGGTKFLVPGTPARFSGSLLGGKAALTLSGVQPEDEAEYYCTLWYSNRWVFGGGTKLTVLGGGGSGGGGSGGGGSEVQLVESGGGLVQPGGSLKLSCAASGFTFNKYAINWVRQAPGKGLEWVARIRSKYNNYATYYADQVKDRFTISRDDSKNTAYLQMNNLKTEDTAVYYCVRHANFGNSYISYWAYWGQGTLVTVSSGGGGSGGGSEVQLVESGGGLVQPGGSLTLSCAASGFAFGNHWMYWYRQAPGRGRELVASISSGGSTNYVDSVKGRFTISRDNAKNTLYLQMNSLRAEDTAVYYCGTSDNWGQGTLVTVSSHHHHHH
T2 sequence (chain, as listed by the source): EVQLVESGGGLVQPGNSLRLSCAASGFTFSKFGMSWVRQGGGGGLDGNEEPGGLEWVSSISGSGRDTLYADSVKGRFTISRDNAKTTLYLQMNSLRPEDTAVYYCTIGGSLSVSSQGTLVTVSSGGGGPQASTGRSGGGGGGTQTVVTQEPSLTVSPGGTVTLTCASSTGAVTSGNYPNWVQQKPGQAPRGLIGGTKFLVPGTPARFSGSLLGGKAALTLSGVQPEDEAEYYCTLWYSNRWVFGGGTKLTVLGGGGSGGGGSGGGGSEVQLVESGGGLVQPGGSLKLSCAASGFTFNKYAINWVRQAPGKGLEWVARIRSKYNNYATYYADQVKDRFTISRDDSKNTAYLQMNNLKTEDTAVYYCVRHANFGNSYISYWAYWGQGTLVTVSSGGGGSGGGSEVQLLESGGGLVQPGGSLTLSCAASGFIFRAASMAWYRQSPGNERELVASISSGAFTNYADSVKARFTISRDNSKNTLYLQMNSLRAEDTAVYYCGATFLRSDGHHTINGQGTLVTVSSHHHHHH

B1: mouse EpCAM (other)
chain: QRDCVCDNYKLATSCSLNEYGECQCTSYGTQNTVICSKLASKCLAMKAEMTHSKSGRRIKPEGAIQNNDGLYDPDCDEQGLFKAKQCNGTATCWCVNTAGVRRTDKDTEITCSERVRTYWIIIELKHKERESPYDHQSLQTALQEAFTSRYKLNQKFIKNIMYENNVITIDLMQNSSQKTQDDVDIADVAYYFEKDVKGESLFHSSKSMDLRVNGEPLDLDPGQTLIYYVDEKAPEFSMQGLT
modifications: biotinylated
notes: also called muEpCAM (biotinylated version of mouse EpCAM antigen)
In the case of B1, the binding result [1] is reported as “no binding”, the Kd [2] is reported as 0.26 nM and the Kd [3] is reported as 0.15 nM.
